31 molecules from PMC10786891, “Massively parallel profiling of RNA-targeting CRISPR-Cas13d” can be followed below.

Residue numbers refer to the chain shown, from its start. In names and notes the source's numbering stands.

T1: EsCas13d, nuclease-dead (Eubacterium siraeum, UniProt B0MS50, R295A;H300A;R849A;H854A)
T1 sequence: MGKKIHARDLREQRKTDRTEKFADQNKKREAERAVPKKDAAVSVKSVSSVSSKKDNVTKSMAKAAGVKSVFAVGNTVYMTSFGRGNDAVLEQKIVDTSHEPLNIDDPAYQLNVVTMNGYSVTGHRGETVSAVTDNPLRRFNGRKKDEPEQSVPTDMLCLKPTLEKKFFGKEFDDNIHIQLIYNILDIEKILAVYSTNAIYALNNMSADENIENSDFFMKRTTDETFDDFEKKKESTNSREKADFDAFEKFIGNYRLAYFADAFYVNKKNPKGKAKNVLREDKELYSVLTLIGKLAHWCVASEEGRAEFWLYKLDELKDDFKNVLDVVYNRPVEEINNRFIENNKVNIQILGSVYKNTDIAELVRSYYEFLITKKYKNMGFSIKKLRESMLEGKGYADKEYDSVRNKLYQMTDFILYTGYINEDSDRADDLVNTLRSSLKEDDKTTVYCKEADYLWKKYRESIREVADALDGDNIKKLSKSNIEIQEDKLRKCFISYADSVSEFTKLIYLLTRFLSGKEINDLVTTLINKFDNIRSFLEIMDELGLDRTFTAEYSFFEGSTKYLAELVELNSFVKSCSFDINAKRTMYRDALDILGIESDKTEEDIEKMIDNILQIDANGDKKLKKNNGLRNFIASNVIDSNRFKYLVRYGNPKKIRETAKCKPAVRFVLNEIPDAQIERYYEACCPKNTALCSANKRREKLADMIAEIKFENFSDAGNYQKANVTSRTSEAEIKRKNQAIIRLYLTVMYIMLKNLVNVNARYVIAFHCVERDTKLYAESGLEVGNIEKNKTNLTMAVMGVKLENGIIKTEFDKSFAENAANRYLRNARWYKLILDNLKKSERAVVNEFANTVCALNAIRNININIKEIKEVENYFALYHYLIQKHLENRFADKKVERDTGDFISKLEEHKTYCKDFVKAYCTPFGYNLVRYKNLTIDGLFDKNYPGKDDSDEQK

B1: target 1 insU 3' of 12,insC 3' of 12 (mixed)
RNA 1: CACCCGUGCAAAAAUGCAGGGGUCUAAAACUGAGCGGAUAACCUCUCUAUGG
RNA 2: GGGAAUGGAUCCACAUCUACGAAUUCGUACCAUAGAGAGGUCUUAUCCGCUCACCGAGAUCGGAAGAGCACACGU
B2: target 1 insG 3' of 20,insG 3' of 3 (mixed)
RNA 1: B1 RNA 1
RNA 2: GGGAAUGGAUCCACAUCUACGAAUUCGUACCAGUAGAGAGGUUAUCCGCUGCACCGAGAUCGGAAGAGCACACGU
B3: target 1 C2G,A18C (mixed)
RNA 1: B1 RNA 1
RNA 2: GGGAAUGGAUCCACAUCUACGAAUUCGUACCAUCGAGAGGUUAUCCGCUGACCGAGAUCGGAAGAGCACACGU
B4: target 1 U8G,U11C (mixed)
RNA 1: B1 RNA 1
RNA 2: B3 RNA 2 with C34A, U41C, U44G, G50C
B5: target 3 insG 3' of 9,insA 3' of 2 (mixed)
RNA 1: CACCCGUGCAAAAUUGCAGGGGUCUAAAACGACCUGAAUAUUUCAGAUCAAA
RNA 2: GGGAAUGGAUCCACAUCUACGAAUUCGUUUUUGAUCUGAAAUAGUUCAGGUACUGCAGAUCGGAAGAGCACACGU
B6: target 3 insU 3' of 3,insA 3' of 2 (mixed)
RNA 1: B5 RNA 1
RNA 2: B5 RNA 2 with G44U, U46C, C47A, A48G, G50U
B7: target 3 insU 3' of 13,insU 3' of 4 (mixed)
RNA 1: B5 RNA 1
RNA 2: B5 RNA 2 with A40U, U42A, A43U, G44A, G50U, U51G, A52U
B8: target 3 insA 3' of 10,insC 3' of 10 (mixed)
RNA 1: B5 RNA 1
RNA 2: B5 RNA 2 with G44C, U45A, C47U, A48C, G49A, U51G, A52U
B9: target 3 insC 3' of 12,insU 3' of 3 (mixed)
RNA 1: B5 RNA 1
RNA 2: B5 RNA 2 with A41C, U42A, A43U, G44A, A52U
B10: target 3 insU 3' of 16,insA 3' of 2 (mixed)
RNA 1: B5 RNA 1
RNA 2: B5 RNA 2 with G38U, A39G, U42A, A43U, G44A
B11: target 3 U20C,U22A (mixed)
RNA 1: B5 RNA 1
RNA 2: GGGAAUGGAUCCACAUCUACGAAUUCGUUAUCGAUCUGAAAUAUUCAGGUCUGCAGAUCGGAAGAGCACACGU
B12: target 3 A11G,A18G (mixed)
RNA 1: B5 RNA 1
RNA 2: B11 RNA 2 with A30U, C32U, A34G, A41G
B13: target 3 G3C,A11G (mixed)
RNA 1: B5 RNA 1
RNA 2: B11 RNA 2 with A30U, C32U, A41G, G49C
B14: target 3 insA 3' of 6,insA 3' of 6 (mixed)
RNA 1: B5 RNA 1
RNA 2: B5 RNA 2 with G44U, U46C, C47A, G49A, U51G, A52U
B15: target 3 insU 3' of 4 (mixed)
RNA 1: B5 RNA 1
RNA 2: GGGAAUGGAUCCACAUCUACGAAUUCGUUUUUGAUCUGAAAUAUUCAGUGUCUGCAGAUCGGAAGAGCACACGU
B16: target 3 insG 3' of 7,insG 3' of 2 (mixed)
RNA 1: B5 RNA 1
RNA 2: B5 RNA 2 with G44U, U46G, A52G
B17: target 3 C6A,A18G (mixed)
RNA 1: B5 RNA 1
RNA 2: B11 RNA 2 with A30U, C32U, A34G, C46A
B18: target 3 insC 3' of 22 (mixed)
RNA 1: B5 RNA 1
RNA 2: GGGAAUGGAUCCACAUCUACGAAUUCGUUUCUUGAUCUGAAAUAUUCAGGUCUGCAGAUCGGAAGAGCACACGU
B19: target 3 insA 3' of 6,insG 3' of 5 (mixed)
RNA 1: B5 RNA 1
RNA 2: B5 RNA 2 with G44U, U46C, C47A, U51G, A52U
B20: target 3 insU 3' of 13,insU 3' of 5 (mixed)
RNA 1: B5 RNA 1
RNA 2: B5 RNA 2 with A40U, U42A, A43U, G44A, G49U, U51G, A52U
B21: target 3 C1G,U7C (mixed)
RNA 1: B5 RNA 1
RNA 2: B11 RNA 2 with A30U, C32U, U45C, C51G
B22: target 3 insA 3' of 4,insA 3' of 2 (mixed)
RNA 1: B5 RNA 1
RNA 2: B5 RNA 2 with G44U, U46C, C47A, A48G, G49A
B23: target 3 del22 (mixed)
RNA 1: B5 RNA 1
RNA 2: GGGAAUGGAUCCACAUCUACGAAUUCGUUUUGAUCUGAAAUAUUCAGGUCUGCAGAUCGGAAGAGCACACGU
B24: target 3 C6G,A9G (mixed)
RNA 1: B5 RNA 1
RNA 2: B11 RNA 2 with A30U, C32U, A43G, C46G
B25: target 3 insU 3' of 16,insU 3' of 16 (mixed)
RNA 1: B5 RNA 1
RNA 2: GGGAAUGGAUCCACAUCUACGAAUUCGUUUUUGAUCUUUGAAAUAUUCAGGUCUGCAGAUCGGAAGAGCACACGU
B26: target 3 insG 3' of 5,insG 3' of 5 (mixed)
RNA 1: B5 RNA 1
RNA 2: B5 RNA 2 with G44U, U46C, C47A, A48G, U51G, A52U
B27: target 3 insA 3' of 6 (mixed)
RNA 1: B5 RNA 1
RNA 2: B15 RNA 2 with G48A, U49G
B28: target 3 del1,del4 (mixed)
RNA 1: B5 RNA 1
RNA 2: GGGAAUGGAUCCACAUCUACGAAUUCGUUUUUGAUCUGAAAUAUUCAGUUGCAGAUCGGAAGAGCACACGU
B29: target 3 insA 3' of 10,insC 3' of 4 (mixed)
RNA 1: B5 RNA 1
RNA 2: B5 RNA 2 with G44A, G50C, U51G, A52U
B30: target 3 insU 3' of 22,insC 3' of 19 (mixed)
RNA 1: B5 RNA 1
RNA 2: B25 RNA 2 with G33U, A34G, U35C, C36A, U38C
B31: target 3 insA 3' of 8,insA 3' of 6 (mixed)
RNA 1: B5 RNA 1
RNA 2: B5 RNA 2 with G44U, U45A, G49A, U51G, A52U

For this data set, the target named is T1, EsCas13d, nuclease-dead. The experiment in a line: crRNA (strand 1, pre-loaded); Mg2+; 40 mM Tris-HCl pH 7.5, 150 mM NaCl, 6 mM MgCl2, 1 mM DTT, 0.1% Tween-20, 0.2 mg/ml BSA; 25 C; 10 min per concentration, then washed. The conditions noted are these: tags: His6-TwinStrep-SUMO cleaved; N-terminal SNAP kept (SNAP-Surface 488); label: 3' end held by stalled T7 RNA polymerase.
Molecule B1 registered a Kd of 0.0276 ± 0.0029 µM.

In turn, B2 showed a Kd of 0.031 ± 0.009 µM.

Consider B3, for which the affinity, expressed as Kd, was 0.044 ± 0.004 µM.

For the molecule B4, the dissociation constant (Kd) was 0.0295 ± 0.0031 µM.

Turning to B5, the Kd was about 0.103 µM.

B6: the Kd stood at 0.039 ± 0.005 µM.

Regarding B7, binding was characterised by a dissociation constant (Kd) of 0.0495 ± 0.0175 µM.

In the case of B8, the affinity, expressed as Kd, was 0.1 ± 0.0375 µM.

Molecule B9 showed a Kd of 0.105 ± 0.034 µM.

In the case of B10, the equilibrium dissociation constant (Kd) was found to be 0.0161 ± 0.0019 µM.

In turn, B11 gave a Kd of 0.055 ± 0.012 µM.

B12 registered a Kd of 0.07 ± 0.025 µM.

Turning to B13, the affinity, expressed as Kd, was 0.061 ± 0.012 µM.

In the case of B14, the Kd came to 0.00496 ± 0.000355 µM.

Molecule B15 gave a dissociation constant Kd of 0.00439 ± 0.000415 µM.

B16 registered a Kd of 0.0326 ± 0.0054 µM.

With B17, the Kd is 0.0555 ± 0.0105 µM.

Regarding B18, binding was characterised by a dissociation constant (Kd) of 0.0214 ± 0.0023 µM.

For B19, the affinity, expressed as Kd, was 0.00551 ± 0.000325 µM.

As for B20, binding was characterised by a dissociation constant (Kd) of 0.106 ± 0.0455 µM.

In turn, B21 returned a Kd of 0.0735 ± 0.036 µM.

On to B22, for which the Kd worked out at 0.033 ± 0.007 µM.

Regarding B23, the Kd turned out to be 0.0103 ± 0.0012 µM.

Molecule B24 had an equilibrium dissociation constant (Kd) of 0.0465 ± 0.0055 µM.

Turning to B25, the affinity, expressed as Kd, was 0.0765 ± 0.012 µM.

For B26, binding was characterised by a dissociation constant (Kd) of 0.0253 ± 0.00525 µM.

B27: binding was put at a Kd of 0.0078 ± 0.00065 µM.

With B28, the Kd came to 0.018 ± 0.0025 µM.

Regarding B29, the equilibrium dissociation constant (Kd) was 0.09 ± 0.032 µM.

As for B30, the Kd amounted to 0.0605 ± 0.0155 µM.

Take B31: the dissociation constant (Kd) was 0.0585 ± 0.0065 µM.
